Results reported in publication PMC8754659.

Key:
[1] = biological target: BH-REC1 fragment of NmeCas9 (Neisseria meningitides); assay: ITC
[2] = biological target: NmeCas9 (Neisseria meningitides) (UniProt C9X1G5); assay: ITC
NmeCas9 (Neisseria meningitides), sequence (C9X1G5 whole entry): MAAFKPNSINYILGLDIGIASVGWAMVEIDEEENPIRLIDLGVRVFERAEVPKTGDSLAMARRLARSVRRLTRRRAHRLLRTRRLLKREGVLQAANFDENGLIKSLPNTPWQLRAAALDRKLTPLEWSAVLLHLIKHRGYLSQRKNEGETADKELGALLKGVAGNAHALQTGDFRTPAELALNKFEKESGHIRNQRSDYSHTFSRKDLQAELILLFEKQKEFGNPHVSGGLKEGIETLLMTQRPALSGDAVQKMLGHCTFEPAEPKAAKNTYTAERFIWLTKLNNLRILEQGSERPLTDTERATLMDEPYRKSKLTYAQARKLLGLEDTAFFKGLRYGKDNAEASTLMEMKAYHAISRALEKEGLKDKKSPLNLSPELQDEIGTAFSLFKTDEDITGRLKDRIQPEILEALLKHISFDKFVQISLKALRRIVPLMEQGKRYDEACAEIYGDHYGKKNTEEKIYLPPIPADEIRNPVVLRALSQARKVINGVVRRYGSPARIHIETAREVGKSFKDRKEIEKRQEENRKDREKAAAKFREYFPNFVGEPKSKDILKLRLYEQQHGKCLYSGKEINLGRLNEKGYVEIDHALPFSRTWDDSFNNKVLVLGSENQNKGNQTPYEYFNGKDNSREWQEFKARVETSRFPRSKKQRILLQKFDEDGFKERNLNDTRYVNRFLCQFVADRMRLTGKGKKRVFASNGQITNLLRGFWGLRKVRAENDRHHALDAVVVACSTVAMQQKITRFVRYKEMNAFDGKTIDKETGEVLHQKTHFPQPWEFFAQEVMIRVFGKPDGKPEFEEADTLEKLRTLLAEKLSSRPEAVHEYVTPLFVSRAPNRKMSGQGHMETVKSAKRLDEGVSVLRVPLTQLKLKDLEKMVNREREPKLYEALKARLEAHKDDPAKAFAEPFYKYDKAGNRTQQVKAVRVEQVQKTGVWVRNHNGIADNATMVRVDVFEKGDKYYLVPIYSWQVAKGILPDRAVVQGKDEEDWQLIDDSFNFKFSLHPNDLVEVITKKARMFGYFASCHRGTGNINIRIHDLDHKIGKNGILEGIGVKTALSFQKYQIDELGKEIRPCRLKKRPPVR

Row | Substance | fold reduction of the binding affinity in high salt against 300 mM salt [1] | Kd [2] | stoichiometry N [2] | fold reduction in binding affinity against wild-type AcrIIA17 [1]
1 | AcrIIA17 (natural protein) | 10 fold | 5 nM | 1 | –
2 | AcrIIA17 D81A/E84A mutant (natural protein) | – | – | – | 20 fold
